These results are taken from article PMC12370991, “Visualizing acyl carrier protein interactions within a crosslinked type I polyketide synthase” (Nature Communications, 2025).

The target of one experiment is T1, E. coli FabA (DH) (E. coli, UniProt P0A6Q3 2-172).
T1 construct: FabA, type II FAS dehydratase, E. coli
T1 sequence: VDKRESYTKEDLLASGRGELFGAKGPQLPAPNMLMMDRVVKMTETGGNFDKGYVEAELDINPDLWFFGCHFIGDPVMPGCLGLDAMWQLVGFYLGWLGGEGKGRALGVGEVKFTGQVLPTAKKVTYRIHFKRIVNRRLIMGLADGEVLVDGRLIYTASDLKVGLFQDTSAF
As to the kind of experiment: cross-linking. The conditions noted are these: both partners purified.

Another experiment concerns the target T2, E. coli FabF (KS) (E. coli, UniProt P0AAI5 1-413).
T2 construct: FabF, type II FAS ketosynthase, E. coli
T2 sequence (looked up): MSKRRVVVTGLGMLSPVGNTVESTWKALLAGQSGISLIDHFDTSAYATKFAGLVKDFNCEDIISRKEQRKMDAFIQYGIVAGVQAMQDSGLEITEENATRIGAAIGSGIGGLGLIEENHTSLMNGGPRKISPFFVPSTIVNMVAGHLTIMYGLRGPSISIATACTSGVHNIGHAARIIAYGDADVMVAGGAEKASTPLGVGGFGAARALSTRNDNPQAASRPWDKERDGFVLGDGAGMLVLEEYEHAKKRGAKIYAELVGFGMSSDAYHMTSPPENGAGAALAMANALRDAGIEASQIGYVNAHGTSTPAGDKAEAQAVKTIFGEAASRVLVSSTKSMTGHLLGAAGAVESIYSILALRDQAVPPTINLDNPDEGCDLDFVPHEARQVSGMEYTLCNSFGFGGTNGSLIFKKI
Nature of the experiment: cross-linking. The conditions noted are these: both partners purified.

B1: E. coli crypto-AcpP (acyl carrier protein of the type II FAS loaded with a crosslinker) (natural protein)
chain: MSTIEERVKKIIGEQLGVKQEEVTNNASFVEDLGADSLDTVELVMALEEEFDTEIPDEEAEKITTVQAAIDYINGHQA
modifications: crosslinker 2, 3, 5, 6 or 8 loaded chemoenzymatically (crypto-AcpP)
notes: AcpP, acyl carrier protein of the type II fatty acid synthase, E. coli; also called E. coli ACP; source: crypto-AcpP purified by SEC
Take B1: the binding result in the experiment with E. coli FabA (DH) and with E. coli FabF (KS) was “binds” in each case.
